Reference: FireProtDB (doi:10.1093/protein/15.6.455)

B1: Cytochrome c-552 wild type, P15452 (protein)
chain: MKKFLLVAVVGLAGITFANEQLAKQKGCMACHDLKAKKVGPAYADVAKKYAGRKDAVDYLAGKIKKGGSGVWGSVPMPPQNVTDAEAKQLAQWILSIK
B2: Cytochrome c-551 wild type, P00099 (protein)
chain: MKPYALLSLLATGTLLAQGAWAEDPEVLFKNKGCVACHAIDTKMVGPAYKDVAAKFAGQAGAEAELAQRIKNGSQGVWGPIPMPPNAVSDDEAQTLAKWVLSQK

Conditions: pH 3.6, Thermal, DSC, sodium acetate 50 mM, reversible: yes, whole UniProt chain shown; for heat capacity change of unfolding / unfolding enthalpy (calorimetric): 62.6 °C
[1] = Hydrogenobacter thermophilus (strain DSM 6534 / IAM 12695 / TK-6)
[2] = Pseudomonas aeruginosa (strain ATCC 15692 / DSM 22644 / CIP 104116 / JCM 14847 / LMG 12228 / 1C / PRS 101 / PAO1)

Row | Protein | heat capacity change of unfolding [1] [kcal/mol/K] | unfolding enthalpy (calorimetric) [1] [kcal/mol] | Tm [1] [°C] | heat capacity change of unfolding [2] [kcal/mol/K] | unfolding enthalpy (calorimetric) [2] [kcal/mol] | Tm [2] [°C]
1 | B1 | 0.54 | 69.5 | 94 |  |  | 
2 | B2 |  |  |  | 0.72 | 60.8 | 62.6
